Measurements from publication PMC12589613.

Biological target: MDA5ΔN (residues 287–1025) (human) (UniProt Q9BYX4)
Sequence (Q9BYX4 287-1025, stated change not applied): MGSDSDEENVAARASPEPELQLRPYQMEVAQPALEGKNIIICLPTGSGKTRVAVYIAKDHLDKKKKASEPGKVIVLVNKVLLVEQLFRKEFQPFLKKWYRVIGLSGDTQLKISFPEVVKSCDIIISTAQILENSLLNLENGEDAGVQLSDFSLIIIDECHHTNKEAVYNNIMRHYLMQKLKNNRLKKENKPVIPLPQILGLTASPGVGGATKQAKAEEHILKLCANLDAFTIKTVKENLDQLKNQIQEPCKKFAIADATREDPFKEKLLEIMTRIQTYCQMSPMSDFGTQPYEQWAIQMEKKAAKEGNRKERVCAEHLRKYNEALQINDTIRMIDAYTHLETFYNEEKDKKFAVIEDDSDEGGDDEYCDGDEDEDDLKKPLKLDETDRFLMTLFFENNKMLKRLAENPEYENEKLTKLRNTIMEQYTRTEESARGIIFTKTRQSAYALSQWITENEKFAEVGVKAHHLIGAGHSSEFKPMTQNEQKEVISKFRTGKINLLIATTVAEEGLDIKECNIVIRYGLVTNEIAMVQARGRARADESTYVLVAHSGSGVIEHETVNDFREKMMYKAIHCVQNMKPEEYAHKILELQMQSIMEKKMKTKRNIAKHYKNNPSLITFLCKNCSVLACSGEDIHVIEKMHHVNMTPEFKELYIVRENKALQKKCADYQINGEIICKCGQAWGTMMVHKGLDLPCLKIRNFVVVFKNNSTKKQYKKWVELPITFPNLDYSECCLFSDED

proportion of MDA5ΔN translocation events that were stopped (immobile) on 11.6-kb dsRNA with LGP2(intermut), smTIRF: 23%
B1: LGP2(E116A, E117A, D603A) (natural protein)
chain: MELRSYQWEVIMPALEGKNIIIWLPTGAGKTRAAAYVAKRHLETVDGAKVVVLVNRVHLVTQHGEEFRRMLDGRWTVTTLSGDMGPRAGFGHLARCHDLLICTAELLQMALTSPEAAEHVELTVFSLIVVDECHHTHKDTVYNVIMSQYLELKLQRAQPLPQVLGLTASPGTGGASKLDGAINHVLQLCANLDTWCIMSPQNCCPQLQEHSQQPCKQYNLCHRRSQDPFGDLLKKLMDQIHDHLEMPELSRKFGTQMYEQQVVKLSEAAALAGLQEQRVYALHLRRYNDALLIHDTVRAVDALAALQDFYHREHVTKTQILCAERRLLALFDDRKNELAHLATHGPENPKLEMLEKILQRQFSSSNSPRGIIFTRTRQSAHSLLLWLQQQQGLQTVDIRAQLLIGAGNSSQSTHMTQRDQQEVIQKFQDGTLNLLVATSVAEEGLDIPHCNVVVRYGLLTNEISMVQARGRARADQSVYAFVATEGSRELKRELINEALETLMEQAVAAVQKMDQAEYQAKIRDLQQAALTKRAAQAAQRENQRQQFPVEHVQLLCINCMVAVGHGSDLRKVEGTHHVNVNPNFSNYYNVSRDPVVINKVFKAWKPGGVISCRNCGEVWGLQMIYKSVKLPVLKVRSMLLETPQGRIQAKKWSRVPFSVPDFDFLQHCAENLSDLSLD
